Results on six molecules are retold here after PMC6913129.

Like-named read-outs stand apart in the source and are kept apart here.

Holding throughout (assay): BLI
Background: Biolayer interferometry detects binding as a change in optical thickness at a sensor tip.

For data set [1], the target named is T1, IFIT1 (UniProt P09914 1-478).
T1 sequence: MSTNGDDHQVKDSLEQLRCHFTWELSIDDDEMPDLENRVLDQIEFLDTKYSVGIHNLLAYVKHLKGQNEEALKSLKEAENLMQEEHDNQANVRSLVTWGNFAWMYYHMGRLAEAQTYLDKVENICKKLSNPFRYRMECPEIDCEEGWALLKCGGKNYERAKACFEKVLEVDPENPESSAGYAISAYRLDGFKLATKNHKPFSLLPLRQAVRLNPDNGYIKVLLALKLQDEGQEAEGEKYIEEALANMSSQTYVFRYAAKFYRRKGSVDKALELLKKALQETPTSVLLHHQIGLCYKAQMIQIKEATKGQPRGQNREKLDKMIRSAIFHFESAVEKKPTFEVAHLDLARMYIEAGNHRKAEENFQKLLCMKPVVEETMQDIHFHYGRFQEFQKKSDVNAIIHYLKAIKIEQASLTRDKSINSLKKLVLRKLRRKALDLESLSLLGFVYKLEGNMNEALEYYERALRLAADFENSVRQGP

Data set [2] concerns the target T2, IFIT5 (UniProt Q13325 1-482).
T2 sequence: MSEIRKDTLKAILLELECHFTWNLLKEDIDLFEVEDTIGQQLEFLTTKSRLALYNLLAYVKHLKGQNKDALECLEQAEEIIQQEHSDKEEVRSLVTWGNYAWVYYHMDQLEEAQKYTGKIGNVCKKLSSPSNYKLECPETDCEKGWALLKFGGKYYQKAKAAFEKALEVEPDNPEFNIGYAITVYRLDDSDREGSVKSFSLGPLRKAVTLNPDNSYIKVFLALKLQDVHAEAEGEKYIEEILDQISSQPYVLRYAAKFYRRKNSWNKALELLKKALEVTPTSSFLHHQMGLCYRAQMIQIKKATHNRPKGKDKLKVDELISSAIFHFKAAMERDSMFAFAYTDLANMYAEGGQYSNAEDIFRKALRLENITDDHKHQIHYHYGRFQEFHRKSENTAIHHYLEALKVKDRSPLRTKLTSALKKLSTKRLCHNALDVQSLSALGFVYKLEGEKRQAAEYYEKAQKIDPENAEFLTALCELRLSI

The target in data set [3] is T2, IFIT5. The source holds these as a separate data set.

As usually defined, the Kd is the constant that tells how readily two partners part at equilibrium. A lower Kd goes with a tighter complex. Take AGGAGACCGGCCUCGA (ssRNA, 5' GpppA cap (unmethylated; cap G not in strand)) [GpppA-16ntRNA]: binding in data set [1] was put at a Kd of 2.65 nM.

With AGGAGACCGGCCUCGA (ssRNA, 5' NADH cap (first A is the NADH adenosine, inferred)) [NADH-16ntRNA], in data set [2], the binding result was “binds”.

For the molecule AGGAGACCGGCCUCGA (ssRNA, 5' m7GpppAm cap 1 (2'-O-methyl A1)) [m7GpppAmG-16ntRNA], the Kd in data set [1] came out at 44 nM.

AGGAGACCGGCCUCGA (ssRNA, 5' triphosphate) [pppA-16ntRNA] had a Kd in data set [1] of 23.4 nM. This Kd lies about 1.9-fold lower than the previous one.

The molecule AGGAGACCGGCCUCGA (ssRNA, 5' m7GpppA cap 0) [m7GpppAG-16ntRNA (m7GpppA)] came in with a dissociation constant (Kd) in data set [1] of 6.12 nM.

As for AGGAGACCGGCCUCGA (ssRNA, 5' NAD+ cap (first A is the NAD adenosine, inferred)) [NAD+-16ntRNA], the binding result in data set [3] was “binds”.
